Measured values: patent US20130116195A1, “Binding ligand linked drug delivery conjugates of tubulysins” (priority 2009, published 2013)
Entries after “also recorded” stand apart in the source; their conditions may differ.

What was measured:
[1] = Serum binding (30K NMWL filtration/HPLC-UV), human serum; format: in vitro ADME; settings: for fraction unbound: human, 50 μM test article concentration in serum, n = 3, read-out: Human Serum % Bound (converted)
Protocol: (§1) METHOD: Serum binding against different species. Compounds are tested with 30K NMWL, subjected to Microcon filtration (10,000 g for 30 minutes), and compounds are detected by HPLC. […] There was two times the amount of free EC0531 in serum compared to EC0305.

[2] = Serum binding (30K NMWL filtration/HPLC-UV), mouse serum; format: in vitro ADME; settings: 50 μM test article concentration in serum, n = 3, read-out: Mouse Serum % Bound (converted)
Protocol: as §1

[3] = Toxicity as measured by weight loss; format: in vivo, mice; settings: for tolerability (percent weight change): FIG. 6, 3 μmol/kg TIW, female mice
Protocol: METHOD: Additional In vivo antitumor method. Four to six week-old female nu/nu mice (Charles River, Wilmington, Mass.) were maintained on a standard 12 h light-dark cycle and fed ad libitum with folate-deficient chow (Harlan diet #TD00434, Harlan Teklad, Madison, Wis.) for the duration of the experiment. KB cells (1×10^6 per nu/nu mouse) in 100 μL were injected in the subcutis of the dorsal medial area. Mice were divided into groups of five, and test articles were freshly prepared and injected through the lateral tail vein under sterile conditions in a volume of 200 μL of phosphate-buffered saline (PBS). Intravenous (i.v.) treatments were typically initiated on approximately 9 post-tumor cell implantation when the KB tumors were approximately 100-200 mm^3 in volume. The mice in the control groups received no treatment. Growth of each s.c. tumor was followed by measuring the tumor three times per week during treatment and twice per week thereafter until a volume of 1500 mm^3 was reached. Tumors were measured in two perpendicular directions using Vernier calipers, and their volumes were calculated as 0.5×L×W^2, where L=measurement of longest axis in mm and W=measurement of axis perpendicular to L in mm. As a general measure of toxicity, changes in body weights were determined on the same schedule as tumor volume measurements. Survival of animals was monitored daily. Animals that were moribund (or unable to reach food or water) were euthanized by CO2 asphyxiation. All in vivo studies were performed in accordance with the American Accreditation Association of Laboratory Animal Care guidelines.
METHOD: Toxicity as Measured by Weight Loss. The percentage weight change of the mice was determined in mice (5 mice/group) on selected days post-tumor inoculation (PTI), and graphed.

[4] = tested on: folate receptor-positive KB cells; assay: Inhibition of Cellular DNA Synthesis (3H-thymidine incorporation cytotoxicity assay); format: cell-based; settings: 2 hour pulse and 72 hour chase
Protocol: METHOD: Inhibition of Cellular DNA Synthesis. The compounds described herein were evaluated using an in vitro cytotoxicity assay that predicts the ability of the drug to inhibit the growth of folate receptor-positive KB cells. The compounds were comprised of folate linked to a respective chemotherapeutic drug, as prepared according to the protocols described herein. The KB cells were exposed for up to 7 h at 37° C. to the indicated concentrations of folate-drug conjugate in the absence or presence of at least a 100-fold excess of folic acid. The cells were then rinsed once with fresh culture medium and incubated in fresh culture medium for 72 hours at 37° C. Cell viability was assessed using a ^3H-thymidine incorporation assay. For compounds described herein, dose-dependent cytotoxicity was generally measurable, and in most cases, the IC50 values (concentration of drug conjugate required to reduce ^3H-thymidine incorporation into newly synthesized DNA by 50%) were in the low nanomolar range.
METHOD: In vitro test against the various cancer cell lines. Cells are heavily seeded in 24-well Falcon plates and allowed to form nearly confluent monolayers overnight. Thirty minutes prior to the addition of the test compound, spent medium is aspirated from all wells and replaced with fresh folate-deficient RPMI medium (FFRPMI). A subset of wells are designated to receive media containing 100 μM folic acid. The cells in the designated wells are used to determine the targeting specificity. […] Following one rinse with 1 mL of fresh FFRPMI containing 10% heat-inactivated fetal calf serum, each well receives 1 mL of medium containing increasing concentrations of test compound (4 wells per sample) in the presence or absence of 100 μM free folic acid as indicated. Treated cells are pulsed for 2 h at 37° C., rinsed 4 times with 0.5 mL of media, and then chased in 1 mL of fresh medium up to 70 h. Spent medium is aspirated from all wells and replaced with fresh medium containing 5 μCi/mL ^3H-thymidine. Following a further 2 h 37° C. incubation, cells are washed 3 times with 0.5 mL of PBS and then treated with 0.5 mL of ice-cold 5% trichloroacetic acid per well. After 15 min, the trichloroacetic acid is aspirated and the cell material solubilized by the addition of 0.5 mL of 0.25 N sodium hydroxide for 15 min. A 450 μL aliquot of each solubilized sample is transferred to a scintillation vial containing 3 mL of Ecolume scintillation cocktail and then counted in a liquid scintillation counter. Final tabulated results are expressed as the percentage of ^3H-thymidine incorporation relative to untreated controls.

subcutaneous KB tumors = assay: KB tumor assay, inhibition of tumor growth in mice; format: in vivo, nu/nu mice; settings: FIG. 3A; 0.5, 0.75, 1 μmol/kg; tolerable and highly toxic dose levels
Protocol: METHOD: Inhibition of Tumor Growth in Mice. Four to seven week-old mice (Balb/c or nu/nu strains) were purchased from Harlan Sprague Dawley, Inc. (Indianapolis, Ind.). Normal rodent chow contains a high concentration of folic acid (6 mg/kg chow); accordingly, mice used were maintained on the folate-free diet (Harlan diet #TD00434) for 1 week before tumor implantation to achieve serum folate concentrations close to the range of normal human serum. For tumor cell inoculation, 1×10^6 M109 cells (Balb/c strain) or 1×10^6 KB cells (nu/nu strain) in 100 μL were injected in the subcutis of the dorsal medial area. Tumors were measured in two perpendicular directions every 2-3 days using a caliper, and their volumes were calculated as 0.5×L×W^2, where L=measurement of longest axis in mm and W=measurement of axis perpendicular to L in mm. […]
METHOD: General KB Tumor Assay. The anti-tumor activity of the compounds described herein, when administered intravenously (i.v.) to tumor-bearing animals, was evaluated in nu/nu mice bearing subcutaneous KB tumors. […] Tumor growth was measured using calipers at 2-day or 3-day intervals in each treatment group. Tumor volumes were calculated using the equation V=a×b^2/2, where “a” is the length of the tumor and “b” is the width expressed in millimeters.
METHOD: Additional In vivo antitumor method. […] Survival of animals was monitored daily. […]

With `CCCC(=O)OCN(C(=O)[C@@H](NC(=O)[C@H]1CCCCN1C)C(C)CC)[C@H](C[C@@H](OC(C)=O)c1nc(C(=O)N[C@@H](Cc2ccc(O)cc2)C[C@H](C)C(=O)NNC(=O)OCCSSC[C@H](NC(=O)[C@H](CC(=O)O)NC(=O)[C@H](CCCNC(=N)N)NC(=O)[C@H](CC(=O)O)NC(=O)CC[C@H](NC(=O)c2ccc(NCc3cnc4nc(N)[nH]c(=O)c4n3)cc2)C(=O)O)C(=O)O)cs1)C(C)C` (stereo partly drawn) [EC0305] the fraction unbound [1] was 0.207, the fraction unbound [2] was 0.362 and the “tolerability (percent weight change)” value [3] was “not well tolerated; also recorded: exceeded MTD”.
With `CCC(C)[C@H](NC(=O)[C@H]1CCCCN1C)C(=O)N(COC(=O)CC(C)C)[C@H](C[C@@H](OC(C)=O)c1nc(C(=O)N[C@@H](Cc2ccc(O)cc2)C[C@H](C)C(=O)NNC(=O)OCCSSC[C@H](NC(=O)[C@H](CC(=O)O)NC(=O)[C@H](CCCNC(=N)N)NC(=O)[C@H](CC(=O)O)NC(=O)CC[C@H](NC(=O)c2ccc(NCc3cnc4nc(N)[nH]c(=O)c4n3)cc2)C(=O)O)C(=O)O)cs1)C(C)C` (stereo partly drawn) [EC0510] the “tolerability (percent weight change)” value [3] was “exceeded MTD” and the “tolerability (percent weight change)” value ([3]; listed as EC0310) was “not well tolerated”.
For `CCCC(=O)OCN(C(=O)[C@@H](NC(=O)[C@H]1CCCCN1C)C(C)CC)[C@H](C[C@@H](OC(C)=O)c1nc(C(=O)N[C@@H](Cc2ccc(O)cc2)C[C@H](C)C(=O)NNC(=O)OCCSSC[C@H](NC(=O)[C@H](CCC(=O)NC[C@H](O)[C@@H](O)[C@H](O)[C@H](O)CO)NC(=O)[C@H](CCC(=O)O)NC(=O)[C@H](CCC(=O)NC[C@H](O)[C@@H](O)[C@H](O)[C@H](O)CO)NC(=O)[C@H](CCC(=O)NC[C@H](O)[C@@H](O)[C@H](O)[C@H](O)CO)NC(=O)[C@H](CCC(=O)O)NC(=O)[C@H](CCC(=O)NC[C@H](O)[C@@H](O)[C@H](O)[C@H](O)CO)NC(=O)CC[C@H](NC(=O)c2ccc(NCc3cnc4nc(N)[nH]c(=O)c4n3)cc2)C(=O)O)C(=O)O)cs1)C(C)C` (stereo partly drawn) [EC0530], the “cytotoxic activity in the presence of an excess of a folate-fluorescein conjugate” value [4] was “blocked”.
In the case of `CCCC(=O)OCN(C(=O)[C@@H](NC(=O)[C@H]1CCCCN1C)C(C)CC)[C@H](C[C@@H](OC(C)=O)c1nc(C(=O)N[C@@H](Cc2ccc(O)cc2)C[C@H](C)C(=O)NNC(=O)OCCSSC[C@H](NC(=O)[C@H](CCC(=O)NC[C@H](O)[C@@H](O)[C@H](O)[C@H](O)CO)NC(=O)[C@H](CCC(=O)O)NC(=O)[C@H](CCC(=O)NC[C@H](O)[C@@H](O)[C@H](O)[C@H](O)CO)NC(=O)[C@H](CCC(=O)O)NC(=O)[C@H](CCC(=O)NC[C@H](O)[C@@H](O)[C@H](O)[C@H](O)CO)NC(=O)CC[C@H](NC(=O)c2ccc(NCc3cnc4nc(N)[nH]c(=O)c4n3)cc2)C(=O)O)C(=O)O)cs1)C(C)C` (stereo partly drawn) [EC0531], the “cytotoxic activity in the presence of an excess of a folate-fluorescein conjugate” value [4] is reported as “blocked”, the “cytotoxic activity in the presence of an excess of folic acid” value [4] is reported as “blocked” and the fraction unbound [1] is reported as 0.38. The “amount of free conjugate in serum compared to EC0305” value ([1]; serum binding assay) was “two times”, the fraction unbound [2] was 0.503 and the “weight loss or major organ tissue degeneration” value ([3]; FIG. 4B, 1, 2, 3 μmol/kg TIW two weeks) was “apparent absence of weight loss or major organ tissue degeneration”. The “tolerability (percent weight change)” value [3] was “well tolerated; also recorded: safe and tolerable”.
For `CCC(C)[C@H](NC(=O)[C@H]1CCCCN1C)C(=O)N(COC(=O)CC(C)C)[C@H](C[C@@H](OC(C)=O)c1nc(C(=O)N[C@@H](Cc2ccc(O)cc2)C[C@H](C)C(=O)NNC(=O)OCCSSC[C@H](NC(=O)[C@H](CCC(=O)NC[C@H](O)[C@@H](O)[C@H](O)[C@H](O)CO)NC(=O)[C@H](CCC(=O)O)NC(=O)[C@H](CCC(=O)NC[C@H](O)[C@@H](O)[C@H](O)[C@H](O)CO)NC(=O)[C@H](CCC(=O)NC[C@H](O)[C@@H](O)[C@H](O)[C@H](O)CO)NC(=O)[C@H](CCC(=O)O)NC(=O)[C@H](CCC(=O)NC[C@H](O)[C@@H](O)[C@H](O)[C@H](O)CO)NC(=O)CC[C@H](NC(=O)c2ccc(NCc3cnc4nc(N)[nH]c(=O)c4n3)cc2)C(=O)O)C(=O)O)cs1)C(C)C` (stereo partly drawn) [EC0533], the “cytotoxic activity in the presence of an excess of a folate-fluorescein conjugate” value [4] was “blocked”.
In the case of `CCC(C)[C@H](NC(=O)[C@H]1CCCCN1C)C(=O)N(COC(=O)CC(C)C)[C@H](C[C@@H](OC(C)=O)c1nc(C(=O)N[C@@H](Cc2ccc(O)cc2)C[C@H](C)C(=O)NNC(=O)OCCSSC[C@H](NC(=O)[C@H](CCC(=O)NC[C@H](O)[C@@H](O)[C@H](O)[C@H](O)CO)NC(=O)[C@H](CCC(=O)O)NC(=O)[C@H](CCC(=O)NC[C@H](O)[C@@H](O)[C@H](O)[C@H](O)CO)NC(=O)[C@H](CCC(=O)O)NC(=O)[C@H](CCC(=O)NC[C@H](O)[C@@H](O)[C@H](O)[C@H](O)CO)NC(=O)CC[C@H](NC(=O)c2ccc(NCc3cnc4nc(N)[nH]c(=O)c4n3)cc2)C(=O)O)C(=O)O)cs1)C(C)C` (stereo partly drawn) [EC0543], the “cytotoxic activity in the presence of an excess of a folate-fluorescein conjugate” value [4] is reported as “blocked” and the observed weight loss ([3]; FIG. 9, 3 μmol/kg, nu/nu mice with KB tumors) is reported as 15 to 18%.
With `CCCC(=O)OCN(C(=O)[C@@H](NC(=O)[C@H]1CCCCN1C)C(C)CC)[C@H](C[C@@H](OC(C)=O)c1nc(C(=O)N[C@@H](Cc2ccc(O)cc2)C[C@H](C)C(=O)O)cs1)C(C)C` (stereo partly drawn) [tubulysin B, reference compound] the “responses (animals)” value (subcutaneous KB tumors) was 0/5 and the “toxicity (percent body weight change)” value ([3]; mouse, in vivo) was “excessive toxicity”.
